Source: US20120244080A1 (GEORGIA STATE UNIVERSITY RESEARCH FOUNDATION, published 2012)

T1: GLP-1 receptor (GLP-1R) on rat insulinoma RINm5F cells (rat (RINm5F rat insulinoma cells), UniProt P32301 22-463)
T1 sequence (looked up): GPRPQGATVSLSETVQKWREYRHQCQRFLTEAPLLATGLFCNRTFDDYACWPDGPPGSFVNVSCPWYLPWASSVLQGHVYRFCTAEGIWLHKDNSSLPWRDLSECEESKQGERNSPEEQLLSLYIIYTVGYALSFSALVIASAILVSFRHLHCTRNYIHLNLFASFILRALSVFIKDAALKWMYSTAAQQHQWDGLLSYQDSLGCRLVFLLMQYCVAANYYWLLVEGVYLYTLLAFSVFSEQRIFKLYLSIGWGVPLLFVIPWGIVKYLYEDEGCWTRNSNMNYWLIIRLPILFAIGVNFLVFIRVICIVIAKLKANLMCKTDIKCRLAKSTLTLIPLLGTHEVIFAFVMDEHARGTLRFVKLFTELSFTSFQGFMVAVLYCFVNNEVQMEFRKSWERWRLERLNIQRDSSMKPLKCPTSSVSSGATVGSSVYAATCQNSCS

B1: Fusion Protein Cal.GLP (human Calbindin D9k-GLP-1 fusion protein) (designed binder)
chain: MSTKKSPEELKRIFEKYAAKEGDPDQLSKDELKLLIQAEFPSLLKGPNTLDDLFQELDKNGHAEGTFTSDVSSYLEGQAAKEFIAWLVKGRG
B2: Human Calbindin D9k (other)
chain: STKKSPEELKRIFEKYAAKEGDPDQLSKDELKLLIQAEFPSLLKGPNTLDDLFQELDKNGDGEVSFEEFQVLVKKISQ
notes: Negative control and parental host protein

Assays:
[1] = target: T1, GLP-1 receptor (GLP-1R) on rat …; assay: cell-based or functional assay
[2] = target: T1, GLP-1 receptor (GLP-1R) on rat …; assay: immunofluorescence staining of RINm5F cells (GLP-1R expressing) after 30 min at 37 °C, detected with rabbit polyclonal anti-calbindin D9k
Experimental: The cells were extensively washed after 30 min treatments under 37° C. in microscopic chamber slides and subsequently fixed. […] The light shading represents antibody staining.
It is well known that GLP-1R is expressed in RINm5F but not in CHO cells. […] Similar binding analyses were carried out with RINm5F cells and a […] (αTC1).

Binder	intracellular cAMP level in rat insulinoma RINm5F cells (Lance cAMP 384 kit), IC50 [1] [nM]	binding result [2]
B1	~20	
B2		no binding (tested: 50 µM)
